# In the supplement of paper PMC12042874:
# ± gives the uncertainty stated by the source.
# Assay: amyloid nucleation score (Sup35N fusion, yeast selection) (log enrichment); library NNK1; higher = more nucleation; inactive = no reads after selection
# Method in brief: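 Peptides of 20 random codons, each fused to Sup35N, were expressed in psi-negative yeast. Cells were induced with 100 μM copper sulfate for 24 hours and grown 7 days at 30°C on medium lacking adenine and uracil, and plasmid inserts before and after selection were Illumina-sequenced. Nucleation scores are DiMSum log enrichments of output over input reads, centred on the mode score of non-aggregating sequences, and sequences under 100 input reads were excluded.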
row,Substance,amyloid nucleation score
1,AYPLKTFIFYHGLMIWFNAM,0.827 ± 0.84
2,RMFWANLQVSVNFGDKRVKY,4.13 ± 0.091
3,SGKNRYIVSSCSWLWAREDL,0.424 ± 1
4,QMDVRDFYSRVSGGGGYQMH,-0.074 ± 0.61
5,MFVRPRESAEHMLGFRVYSG,0.452 ± 0.37
6,TSCFCI,-0.133 ± 0.33
7,FIHAMAMCILGEHSI,0.686 ± 0.47
8,GPRYRLLLWECCRHDLSLSC,0.72 ± 0.43
9,SRTVTLFHHASNKSFHSSVS,-0.074 ± 0.9
10,FNFRSS,-0.618 ± 0.72
11,DGKHWTDYLVMY,1.5 ± 0.47
12,VIQHIYAKDSNCSHLV,-0.529 ± 0.52
13,IFFKLVLVWTFLLTYQAYWV,0.174 ± 0.85
14,LRKCSLAVPYGLRLVYLRKE,0.14 ± 0.54
15,PREVVAQKHCSLLQFDLLYS,-0.556 ± 0.48
16,EDGPWACTCYYCGQGRRTWV,0.16 ± 0.9
17,YYLIMP,0.322 ± 0.41
18,LPFEVRLDCDVVGGG,0.725 ± 0.48
19,MSQAALLVLGNRFGNNDIVG,-0.078 ± 0.44
20,QYLFSGLEEMPIVTVLS,-0.393 ± 0.31
21,SDRDVVRVIYNSVGGTVWFG,1.07 ± 0.19
22,TGLCDRLRSLEGAAAVR,0.514 ± 0.49
23,SVPVQD,0.633 ± 0.4
